± gives the uncertainty stated by the source.

Here are results for 39 variants from the Human Domainome abundance scans (Beltran et al. 2025).

The chains are these.
B1: Pituitary-specific positive transcription factor 1, residues 130 to 198; numbered along this chain, P28069 (parent)
chain: RELEKFANEFKVRRIKLGYTQTNVGEALAAVHGSEFSQTTICRFENLQLSFKNACKLKAILSKWLEEAE

Variants of B1 are the subject of the data set. Briefly: abundance fitness (aPCA) (normalised: wild type 0, dead -1); higher = more abundant; growth selection in yeast, the domain comes from the species named. The settings on record: Homo sapiens.
With RELEKFANEFKVRRIKLGYTQTNVGEALAAVHGSEFSQTTICRFENLQLSFKNACKLKAILNKWLEEAE, the abundance fitness is -0.438 ± 0.088.
With RELEKFANEFKVRRIKLGYTQTNVGEALAAVHGSEFSQTTICRFENLQLSFKNACKLKAILLKWLEEAE the figure was -0.144 ± 0.055; with RELEKFANEFKVRRIKLGYTQTNVGEALAAVHGSEFSQTTICRFENLQLSFKNACKLKAILIKWLEEAE, 0.001 ± 0.081; with RELEKFANEFKVRRIKLGYTQTNVGEALAAVHGSEFSQTTICRFENLQLSFKNACKLKPILSKWLEEAE, 0.381 ± 0.058.
For RELEKFANEFKVRRIKLGYTQTNVGEALAAVHGSEFSQTTICRFENLQLSFKNACKLKIILSKWLEEAE, the abundance fitness worked out at 0.049 ± 0.064.
Take RELEKFANEFKVRRIKLGYTQTNVGEALAAVHGSEFSQTTICRFENLQLSFKNACKLKEILSKWLEEAE: the abundance fitness turned out to be 0.214 ± 0.063.
As for RELEKFANEFKVRRIKLGYTQTNVGEALAAVHGSEFSQTTICRFENLQLSFKNACKLKDILSKWLEEAE, the abundance fitness came to 0.094 ± 0.083.
On to RELEKFANEFKVRRIKLGYTQTNVGEALAAVHGSEFSQTTICRFENLQLSFKNACKLKYILSKWLEEAE, for which the abundance fitness was -0.298 ± 0.099.
Consider RELEKFANEFKVRRIKLGYTQTNVGEALAAVHGSEFSQTTICRFENLQLSFKNACKLKRILSKWLEEAE, for which the abundance fitness was -0.059 ± 0.044.
The same measure for RELEKFANEFKVRRIKLGYTQTNVGEALAAVHGSEFSQTTICRFENLQLSFKNACKLKTILSKWLEEAE: 0.042 ± 0.069; for RELEKFANEFKVRRIKLGYTQTNVGEALAAVHGSEFSQTTICRFENLQLSFKNACKLKVILSKWLEEAE: 0.116 ± 0.048; for RELEKFANEFKVRRIKLGYTQTNVGEALAAVHGSEFSQTTICRFENLQLSFKNACKLKQILSKWLEEAE: -0.045 ± 0.064.
With RELEKFANEFKVRRIKLGYTQTNVGEALAAVHGSEFSQTTICRFENLQLSFKNACKLKKILSKWLEEAE the figure was 0.025 ± 0.062; with RELEKFANEFKVRRIKLGYTQTNVGEALAAVHGSEFSQTTICRFENLQLSFKNACKLKSILSKWLEEAE, 0.007 ± 0.042.
Take RELEKFANEFKVRRIKLGYTQTNVGEALAAVHGSEFSQTTICRFENLQLSFKNACKLKMILSKWLEEAE: the abundance fitness was -0.076 ± 0.064.
For the variant RELEKFANEFKVRRIKLGYTQTNVGEALAAVHGSEFSQTTICRFENLQLSFKNACKLKGILSKWLEEAE, the abundance fitness turned out to be 0.059 ± 0.037.
The same measure for RELEKFANEFKVRRIKLGYTQTNVGEALAAVHGSEFSQTTICRFENLQLSFKNACKLKWILSKWLEEAE: -0.61 ± 0.1; for RELEKFANEFKVRRIKLGYTQTNVGEALAAVHGSEFSQTTICRFENLQLSFKNACKLKNILSKWLEEAE: 0.078 ± 0.076.
Turning to RELEKFANEFKVRRIKLGYTQTNVGEALAAVHGSEFSQTTICRFENLQLSFKNACKLKCILSKWLEEAE, the abundance fitness is -0.084 ± 0.056.
With RELEKFANEFKVRRIKLGYTQTNVGEALAAVHGSEFSQTTICRFENLQLSFKNACKLKLILSKWLEEAE the figure was -0.122 ± 0.046; with RELEKFANEFKVRRIKLGYTQTNVGEALAAVHGSEFSQTTICRFENLQLSFKNACKLKADLSKWLEEAE, -0.343 ± 0.11.
Turning to RELEKFANEFKVRRIKLGYTQTNVGEALAAVHGSEFSQTTICRFENLQLSFKNACKLKAYLSKWLEEAE, the abundance fitness is -0.347 ± 0.14.
For the variant RELEKFANEFKVRRIKLGYTQTNVGEALAAVHGSEFSQTTICRFENLQLSFKNACKLKALLSKWLEEAE, the abundance fitness is -0.135 ± 0.053.
Take RELEKFANEFKVRRIKLGYTQTNVGEALAAVHGSEFSQTTICRFENLQLSFKNACKLKARLSKWLEEAE: the abundance fitness was -0.346 ± 0.066.
With RELEKFANEFKVRRIKLGYTQTNVGEALAAVHGSEFSQTTICRFENLQLSFKNACKLKATLSKWLEEAE the figure was -0.51 ± 0.08; with RELEKFANEFKVRRIKLGYTQTNVGEALAAVHGSEFSQTTICRFENLQLSFKNACKLKAKLSKWLEEAE, -0.262 ± 0.1; with RELEKFANEFKVRRIKLGYTQTNVGEALAAVHGSEFSQTTICRFENLQLSFKNACKLKAQLSKWLEEAE, -0.559 ± 0.18.
The same measure for RELEKFANEFKVRRIKLGYTQTNVGEALAAVHGSEFSQTTICRFENLQLSFKNACKLKASLSKWLEEAE: -0.568 ± 0.099; for RELEKFANEFKVRRIKLGYTQTNVGEALAAVHGSEFSQTTICRFENLQLSFKNACKLKANLSKWLEEAE: -0.357 ± 0.14; for RELEKFANEFKVRRIKLGYTQTNVGEALAAVHGSEFSQTTICRFENLQLSFKNACKLKAVLSKWLEEAE: -0.024 ± 0.084.
The same measure for RELEKFANEFKVRRIKLGYTQTNVGEALAAVHGSEFSQTTICRFENLQLSFKNACKLKAHLSKWLEEAE: -0.437 ± 0.17; for RELEKFANEFKVRRIKLGYTQTNVGEALAAVHGSEFSQTTICRFENLQLSFKNACKLKAELSKWLEEAE: -0.567 ± 0.21; for RELEKFANEFKVRRIKLGYTQTNVGEALAAVHGSEFSQTTICRFENLQLSFKNACKLKAFLSKWLEEAE: -0.725 ± 0.22.
In the case of RELEKFANEFKVRRIKLGYTQTNVGEALAAVHGSEFSQTTICRFENLQLSFKNACKLKAALSKWLEEAE, the abundance fitness was -0.281 ± 0.073.
Consider RELEKFANEFKVRRIKLGYTQTNVGEALAAVHGSEFSQTTICRFENLQLSFKNACKLKAMLSKWLEEAE, for which the abundance fitness is -0.239 ± 0.079.
The same measure for RELEKFANEFKVRRIKLGYTQTNVGEALAAVHGSEFSQTTICRFENLQLSFKNACKLKAWLSKWLEEAE: -0.611 ± 0.14.
The same measure for RELEKFANEFKVRRIKLGYTQTNVGEALAAVHGSEFSQTTICRFENLQLSFKNACKLKAGLSKWLEEAE: -0.495 ± 0.091.
With RELEKFANEFKVRRIKLGYTQTNVGEALAAVHGSEFSQTTICRFENLQLSFKNACKLKACLSKWLEEAE, the abundance fitness is -0.365 ± 0.1.
In the case of RELEKFANEFKVRRIKLGYTQTNVGEALAAVHGSEFSQTTICRFENLQLSFKNACKLKAPLSKWLEEAE, the abundance fitness was -0.2 ± 0.08.
